Experiment [1] has as its target T1, β-catenin (UniProt P35222 1-781).
T1 sequence (looked up): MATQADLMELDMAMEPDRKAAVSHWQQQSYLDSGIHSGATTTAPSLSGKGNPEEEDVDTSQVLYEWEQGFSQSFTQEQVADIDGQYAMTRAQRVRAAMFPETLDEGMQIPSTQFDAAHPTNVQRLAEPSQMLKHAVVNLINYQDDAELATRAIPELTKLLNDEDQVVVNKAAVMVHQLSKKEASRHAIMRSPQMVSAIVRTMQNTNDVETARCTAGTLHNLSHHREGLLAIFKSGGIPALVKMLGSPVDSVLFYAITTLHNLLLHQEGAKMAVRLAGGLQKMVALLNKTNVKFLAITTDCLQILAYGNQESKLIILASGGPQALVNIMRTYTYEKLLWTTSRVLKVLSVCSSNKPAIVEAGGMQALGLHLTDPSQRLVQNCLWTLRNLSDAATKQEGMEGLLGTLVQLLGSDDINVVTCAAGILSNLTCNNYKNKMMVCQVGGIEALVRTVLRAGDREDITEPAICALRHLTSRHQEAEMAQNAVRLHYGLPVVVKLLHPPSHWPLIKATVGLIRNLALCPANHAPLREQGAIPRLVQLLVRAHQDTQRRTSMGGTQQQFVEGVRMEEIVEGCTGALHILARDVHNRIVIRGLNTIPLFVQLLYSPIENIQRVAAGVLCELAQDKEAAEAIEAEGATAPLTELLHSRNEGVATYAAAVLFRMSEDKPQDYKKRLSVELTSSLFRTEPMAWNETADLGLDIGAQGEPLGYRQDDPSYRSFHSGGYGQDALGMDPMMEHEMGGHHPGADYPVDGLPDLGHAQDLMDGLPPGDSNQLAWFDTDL
In words: anti-Flag M2 affinity purification from HEK293 extracts, LC-MS/MS and immunoblot of eluates. On the procedure: FIG. 1. Purification of RORα-containing complex and identification of β-catenin as a binding partner (A) RORα-containing complex was purified from extracts obtained from HEK293 cells stably expressing Flag-tagged RORα. As a negative control, a mock purification from HEK293 cells stably expressing an empty vector was performed. The bound proteins were resolved by SDS-PAGE and prepared for LC-MS/MS analysis. […] (C) β-catenin and GRIP1 were detected from the elutes by immunoblot analysis. (D) Coimmunoprecipitation of endogenous RORα with β-catenin in HEK293 cells. (E) Ni+-NTA-agarose pulldown assay was performed with plasmids expressing each GFP-tagged β-catenin deletion construct and HisMax-RORα. (F) Illustration of the structure of various β-catenin deletion constructs and binding to RORα.
Purification of RORα-Containing Complex and Identification of β-Catenin as a Binding Partner To investigate the as-yet-unidentified functional modules of RORα, we used a Flag epitope-tag strategy to purify RORα-containing complexes. We generated cell lines that stably express Flag-tagged RORα, and incubated the extracts in anti-Flag M2 affinity gel. After washing with buffer containing increasing salt concentrations of up to 500 mM, the proteins retained on the affinity chromatography column were eluted with buffer containing Flag peptide. […]

For experiment [2], the target named is PKCβ2 (UniProt P05771-2 1-673). In words: in vivo coimmunoprecipitation.
Experiment [3] concerns the target PKCδ (UniProt Q05655 1-676). The experiment in a line: in vivo coimmunoprecipitation.
For experiment [4], the target named is T2, PKCε (UniProt Q02156 1-737).
T2 sequence (looked up): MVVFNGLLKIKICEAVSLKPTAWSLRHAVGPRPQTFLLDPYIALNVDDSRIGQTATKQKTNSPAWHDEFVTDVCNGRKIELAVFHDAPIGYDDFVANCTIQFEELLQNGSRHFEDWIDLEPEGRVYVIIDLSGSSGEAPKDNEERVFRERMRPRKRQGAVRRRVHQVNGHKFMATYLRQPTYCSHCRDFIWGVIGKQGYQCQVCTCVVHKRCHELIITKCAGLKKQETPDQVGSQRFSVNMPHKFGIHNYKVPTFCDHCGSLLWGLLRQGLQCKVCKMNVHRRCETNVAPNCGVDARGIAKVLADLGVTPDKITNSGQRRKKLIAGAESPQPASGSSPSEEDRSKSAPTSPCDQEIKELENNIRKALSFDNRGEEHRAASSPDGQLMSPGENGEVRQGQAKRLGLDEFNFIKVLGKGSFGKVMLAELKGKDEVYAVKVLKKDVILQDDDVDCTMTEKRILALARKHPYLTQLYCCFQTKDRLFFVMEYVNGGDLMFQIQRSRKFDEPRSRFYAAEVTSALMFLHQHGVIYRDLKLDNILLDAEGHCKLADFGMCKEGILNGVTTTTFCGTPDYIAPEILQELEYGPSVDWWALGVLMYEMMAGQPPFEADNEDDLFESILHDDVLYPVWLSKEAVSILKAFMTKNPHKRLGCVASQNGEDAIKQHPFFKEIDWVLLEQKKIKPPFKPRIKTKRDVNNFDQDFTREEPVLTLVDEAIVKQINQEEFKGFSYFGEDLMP
In words: in vivo coimmunoprecipitation.

Experiment [5] deals with PKCη (UniProt P24723 1-683). The experiment in a line: in vivo coimmunoprecipitation.
Experiment [6] concerns the target T1, β-catenin. The experiment in a line: co-IP with anti-Flag antibody from HCT116 cells, immunoblot for β-catenin. On the procedure: FIG. 4. PKCα-dependent phosphorylation of RORα is crucial for downregulation of Wnt/β-catenin target genes (A) The specificity of the antibody raised against phosphorylated RORαS35 peptide (SEQ ID NO:18) was assessed by dot blot analysis. (B) Treatment of TPA increased phophorylated RORα on S35 site as assessed by immunoprecipitation with anti-phospho-RORαS35 antibody. […] (D) Treatment of Go6976, a PKCα inhibitor, abolished TPA-dependent phosphorylation of RORα as assessed by immonoblotting with anti-phospho-RORαS35 antibody. (E) HCT116 cells were transfected with Flag-RORα WT, S35D, or S35A, and the cell extracts were immunoprecipitated with anti-Flag antibody followed by immunoblotting against anti-β-catenin antibody. (F) Coimmunoprecipitation assay of β-catenin with either RORαWT or S35A in HCT116 cells after treatment with TPA in the absence or presence of Go6976. (G) ChIP analysis on the cyclin D1 promoter after transfection with Flag-RORαWT, S35A, or S35D in HCT116 cells. (H) ChIP analysis on the cyclin D1 promoter in HCT116 cells after TPA treatment for indicated time. […] (J) Real-time quantitative RT-PCR analysis of the cyclin D1 transcript in HCT116 cells in the presence of TPA for indicated time. (K) Knockdown effect of siRNA against RORα or PKCα was assessed in the expression of the cyclin D1 transcript in HCT116 cells. […]

The source of these data is patent US8697366 (SEOUL NATIONAL UNIVERSITY INDUSTRY FOUNDATION, dated 2014).

Sequence of PKCη (P24723 whole entry): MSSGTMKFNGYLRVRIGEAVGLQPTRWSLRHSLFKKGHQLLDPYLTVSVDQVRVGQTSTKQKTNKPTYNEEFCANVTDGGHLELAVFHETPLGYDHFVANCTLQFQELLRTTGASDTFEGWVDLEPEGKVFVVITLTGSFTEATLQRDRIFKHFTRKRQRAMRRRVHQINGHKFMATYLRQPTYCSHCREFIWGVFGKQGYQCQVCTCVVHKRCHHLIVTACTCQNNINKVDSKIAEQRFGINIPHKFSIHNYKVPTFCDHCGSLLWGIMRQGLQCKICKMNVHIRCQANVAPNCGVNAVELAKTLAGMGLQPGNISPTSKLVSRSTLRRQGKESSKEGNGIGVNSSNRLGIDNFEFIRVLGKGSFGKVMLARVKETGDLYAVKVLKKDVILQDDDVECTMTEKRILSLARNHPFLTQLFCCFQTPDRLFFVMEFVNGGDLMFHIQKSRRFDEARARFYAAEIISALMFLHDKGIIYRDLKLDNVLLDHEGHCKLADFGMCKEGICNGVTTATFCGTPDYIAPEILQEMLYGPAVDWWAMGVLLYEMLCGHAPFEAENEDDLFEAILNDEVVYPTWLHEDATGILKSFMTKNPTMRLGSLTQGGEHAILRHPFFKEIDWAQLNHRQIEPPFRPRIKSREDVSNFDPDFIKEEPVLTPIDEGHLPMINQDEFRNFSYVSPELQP
Sequence of PKCβ2 (P05771 other isoform, or with tags, fused parts or gaps): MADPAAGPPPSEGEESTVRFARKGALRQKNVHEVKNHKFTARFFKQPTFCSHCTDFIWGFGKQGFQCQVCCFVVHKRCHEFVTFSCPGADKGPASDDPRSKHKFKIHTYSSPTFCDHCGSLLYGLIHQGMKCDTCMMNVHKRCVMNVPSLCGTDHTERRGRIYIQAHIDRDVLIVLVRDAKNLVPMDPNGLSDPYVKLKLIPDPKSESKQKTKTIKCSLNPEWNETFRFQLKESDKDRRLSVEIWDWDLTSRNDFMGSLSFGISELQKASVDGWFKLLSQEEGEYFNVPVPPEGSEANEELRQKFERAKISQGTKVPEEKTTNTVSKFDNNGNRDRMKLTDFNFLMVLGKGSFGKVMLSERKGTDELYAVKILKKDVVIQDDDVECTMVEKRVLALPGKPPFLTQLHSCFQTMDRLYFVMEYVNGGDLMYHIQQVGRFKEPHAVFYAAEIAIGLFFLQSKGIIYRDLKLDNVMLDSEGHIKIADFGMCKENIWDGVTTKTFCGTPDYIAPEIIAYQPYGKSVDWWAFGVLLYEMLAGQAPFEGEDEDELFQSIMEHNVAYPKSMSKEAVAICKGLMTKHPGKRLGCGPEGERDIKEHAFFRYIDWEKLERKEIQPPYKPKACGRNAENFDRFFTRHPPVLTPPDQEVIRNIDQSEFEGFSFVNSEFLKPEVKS
Sequence of PKCδ (Q05655 whole entry, stated change not applied): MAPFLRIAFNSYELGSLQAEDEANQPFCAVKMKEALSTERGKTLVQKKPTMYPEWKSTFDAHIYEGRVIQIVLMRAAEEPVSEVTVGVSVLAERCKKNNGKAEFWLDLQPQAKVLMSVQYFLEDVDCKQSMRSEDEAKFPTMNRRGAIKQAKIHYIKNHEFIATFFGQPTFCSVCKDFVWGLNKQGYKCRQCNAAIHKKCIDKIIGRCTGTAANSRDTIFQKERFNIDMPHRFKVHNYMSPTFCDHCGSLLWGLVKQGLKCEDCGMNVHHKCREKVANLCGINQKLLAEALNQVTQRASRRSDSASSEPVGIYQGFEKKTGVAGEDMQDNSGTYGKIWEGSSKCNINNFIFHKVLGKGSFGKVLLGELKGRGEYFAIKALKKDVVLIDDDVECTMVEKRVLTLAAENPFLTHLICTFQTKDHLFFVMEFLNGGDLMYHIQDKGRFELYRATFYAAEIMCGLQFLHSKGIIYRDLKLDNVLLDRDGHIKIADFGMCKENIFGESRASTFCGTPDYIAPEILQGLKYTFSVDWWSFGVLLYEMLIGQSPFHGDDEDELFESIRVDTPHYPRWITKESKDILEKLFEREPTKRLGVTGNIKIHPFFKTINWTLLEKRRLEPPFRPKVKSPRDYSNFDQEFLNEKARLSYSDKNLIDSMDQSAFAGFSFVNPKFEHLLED

B1: Flag-tagged RORα (receptor, UniProt P35398 1-523, looked up)
chain: MESAPAAPDPAASEPGSSGADAAAGSRETPLNQESARKSEPPAPVRRQSYSSTSRGISVTKKTHTSQIEIIPCKICGDKSSGIHYGVITCEGCKGFFRRSQQSNATYSCPRQKNCLIDRTSRNRCQHCRLQKCLAVGMSRDAVKFGRMSKKQRDSLYAEVQKHRMQQQQRDHQQQPGEAEPLTPTYNISANGLTELHDDLSNYIDGHTPEGSKADSAVSSFYLDIQPSPDQSGLDINGIKPEPICDYTPASGFFPYCSFTNGETSPTVSMAELEHLAQNISKSHLETCQYLREELQQITWQTFLQEEIENYQNKQREVMWQLCAIKITEAIQYVVEFAKRIDGFMELCQNDQIVLLKAGSLEVVFIRMCRAFDSQNNTVYFDGKYASPDVFKSLGCEDFISFVFEFGKSLCSMHLTEDEIALFSAFVLMSADRSWLQEKVKIEKLQQKIQLALQHVLQKNHREDGILTKLICKVSTLRALCGRHTEKLMAFKAIYPDIVRLHFPPLYKELFTSEFEPAMQIDG
notes: also called Flag-RORα; Flag-RORα WT; not shown: Flag tag
As for B1, in experiment [1], the binding result was “binds”.

B2: RORα (receptor, UniProt P35398 1-523, looked up)
chain: MESAPAAPDPAASEPGSSGADAAAGSRETPLNQESARKSEPPAPVRRQSYSSTSRGISVTKKTHTSQIEIIPCKICGDKSSGIHYGVITCEGCKGFFRRSQQSNATYSCPRQKNCLIDRTSRNRCQHCRLQKCLAVGMSRDAVKFGRMSKKQRDSLYAEVQKHRMQQQQRDHQQQPGEAEPLTPTYNISANGLTELHDDLSNYIDGHTPEGSKADSAVSSFYLDIQPSPDQSGLDINGIKPEPICDYTPASGFFPYCSFTNGETSPTVSMAELEHLAQNISKSHLETCQYLREELQQITWQTFLQEEIENYQNKQREVMWQLCAIKITEAIQYVVEFAKRIDGFMELCQNDQIVLLKAGSLEVVFIRMCRAFDSQNNTVYFDGKYASPDVFKSLGCEDFISFVFEFGKSLCSMHLTEDEIALFSAFVLMSADRSWLQEKVKIEKLQQKIQLALQHVLQKNHREDGILTKLICKVSTLRALCGRHTEKLMAFKAIYPDIVRLHFPPLYKELFTSEFEPAMQIDG
notes: also called retinoic acid-related orphan nuclear receptor (ROR)α; endogenous RORα
Take B2: the binding result in experiment [2], in experiment [3], in experiment [4] and in experiment [5] was “no binding” in each case.

B3: Flag-RORα DBD mutant (C90A) (receptor, UniProt P35398 1-523, looked up)
chain: MESAPAAPDPAASEPGSSGADAAAGSRETPLNQESARKSEPPAPVRRQSYSSTSRGISVTKKTHTSQIEIIPCKICGDKSSGIHYGVITAEGCKGFFRRSQQSNATYSCPRQKNCLIDRTSRNRCQHCRLQKCLAVGMSRDAVKFGRMSKKQRDSLYAEVQKHRMQQQQRDHQQQPGEAEPLTPTYNISANGLTELHDDLSNYIDGHTPEGSKADSAVSSFYLDIQPSPDQSGLDINGIKPEPICDYTPASGFFPYCSFTNGETSPTVSMAELEHLAQNISKSHLETCQYLREELQQITWQTFLQEEIENYQNKQREVMWQLCAIKITEAIQYVVEFAKRIDGFMELCQNDQIVLLKAGSLEVVFIRMCRAFDSQNNTVYFDGKYASPDVFKSLGCEDFISFVFEFGKSLCSMHLTEDEIALFSAFVLMSADRSWLQEKVKIEKLQQKIQLALQHVLQKNHREDGILTKLICKVSTLRALCGRHTEKLMAFKAIYPDIVRLHFPPLYKELFTSEFEPAMQIDG
notes: also called RORαC90A; not shown: Flag tag
As for B3, the binding result in experiment [6] is “binds”.

B4: Flag-RORα S35D (receptor, UniProt P35398 1-523, looked up)
chain: MESAPAAPDPAASEPGSSGADAAAGSRETPLNQEDARKSEPPAPVRRQSYSSTSRGISVTKKTHTSQIEIIPCKICGDKSSGIHYGVITCEGCKGFFRRSQQSNATYSCPRQKNCLIDRTSRNRCQHCRLQKCLAVGMSRDAVKFGRMSKKQRDSLYAEVQKHRMQQQQRDHQQQPGEAEPLTPTYNISANGLTELHDDLSNYIDGHTPEGSKADSAVSSFYLDIQPSPDQSGLDINGIKPEPICDYTPASGFFPYCSFTNGETSPTVSMAELEHLAQNISKSHLETCQYLREELQQITWQTFLQEEIENYQNKQREVMWQLCAIKITEAIQYVVEFAKRIDGFMELCQNDQIVLLKAGSLEVVFIRMCRAFDSQNNTVYFDGKYASPDVFKSLGCEDFISFVFEFGKSLCSMHLTEDEIALFSAFVLMSADRSWLQEKVKIEKLQQKIQLALQHVLQKNHREDGILTKLICKVSTLRALCGRHTEKLMAFKAIYPDIVRLHFPPLYKELFTSEFEPAMQIDG
notes: not shown: Flag tag
As to B4, the binding result in experiment [6] is recorded as “binds”.
